Assay results as given in patent US9974865B2, “Antibody drug conjugates (ADC) that bind to FLT3 proteins” (AGENSYS, INC., priority 2015, dated 2018).

Legend:
Raji cells = assay: ADCC assay (CytoTox 96, LDH release), positive control cell line; assay type: cell-based, human; conditions: E:T=100:1, 2.5 ug/mL, 4 hours
cell surface FLT3 = cell surface FLT3 (Homo sapiens, UniProt P36888); assay: Binding to cell surface FLT3 by flow cytometry
From the text: To express CHv62.21 MAb recombinantly in transfected cells, v62.21 hybridoma MAb variable heavy and light chain sequences were cloned upstream of the human heavy chain IgG1 and human light chain Igκ constant regions respectively. The complete CHv62.21 MAb human heavy chain and light chain cassettes were cloned downstream of the CMV promoter/enhancer in a cloning vector. The recombinant CHv62.21 MAb expressing construct was transfected into CHO cells for stable expression in the Lonza GS system (Lonza, Basel, Switzerland). The CHv62.21 MAb secreted from recombinant CHO cells was purified and evaluated for binding to cell surface FLT3 by flow cytometry.
To express CHv62.21pAF recombinantly in transfected cells, v62-1b21 hybridoma MAb variable heavy and light chain sequences were cloned upstream of the human heavy chain IgG1 and human light chain Igκ constant regions respectively. The complete CHv62.21 MAb human heavy chain and light chain cassettes were cloned downstream of the CMV promoter/enhancer in a cloning vector. […] The CHv62.21pAF secreted from the stable subclone was purified and evaluated for binding to cell surface FLT3 by flow cytometry.

EOL-1 cells = assay: EOL-1 growth with human FLT3 ligand and antibody (Cell Titer Glo, 5 days); assay type: cell-based
Experimental: The ability of FLT3 antibodies (CHv62.21 and v62-1b37.1) to mediate the effect of human FLT3 ligand was evaluated using the human leukemia EOL-1 cell line, which endogenously expresses FLT3. Isotype control antibody (mLys-1c3.1) was also used. […] The next day, cells were treated with 50, 10 or 5 ng/mL of human FLT3 ligand (in 25 μl of complete media) and 10, 1, 0.1 and 0 μg/mL of test antibody (in 25 μl of complete media). Media alone was used as the untreated control. […] At the end of the incubation period, 100 μl of Cell Titer Glo was added to each well and incubated for 30 minutes, shaking, at room temperature.

RS-4-11 cells = assay type: cell-based, human
Experimental: Briefly, The RS-4-11 cells were seeded in 50 μl of complete media at a density of 3000 cells per well onto 96 well plates and placed in a tissue culture incubator at 37° C.; 5% CO2. The next day, the ADCs were prepared in complete media at 10 μg/mL and serially diluted 1:5 for a total of 9 points. […] At the end of the incubation period, 20 μl of Presto Blue was added to each well and incubated for 2 hours. The plates were read using a BioTek Synergy H4 plate reader using 540 Excitation and 590 Emission wavelengths and graphed using Graphpad Prism software.

Molecule: Rituximab
- ADCC activity (Raji cells): confirms ADCC activity

B1: v62-1b21: hybridoma FLT3 MAb from VelocImmune mice, fully human variable regions and mouse constant regions (antibody, V domains shown)
VH: EVQLVESGGGLVRPGGSLRLSCAASGFTFSGYSINWVRQAPGKGLEWVSSISSSSNYIYYADSVKGRFTISRDNAKNSLYLQMNSLRAEDTAVYYCAREGFIAGTTFDAFDIWGQGTMVTVSS
VL: DIQMTQSPSSLSASVGDRVTITCRASQGIRNDLGWYQQKPGKAPKRLIYAASSLQSGVPSRFSGSGSGTEFTLTISSLQPEDFATYYCLQHNGFPYTFGQGTKLEIKR
- binding to cell surface FLT3 (cell surface FLT3): specifically binds to Flt3 protein and Flt3 expressing cells

B2: Human FLT3 ligand: human FLT3 ligand purchased from R and D Systems (protein)
chain: TQDCSFQHSPISSDFAVKIRELSDYLLQDYPVTVASNLQDEELCGGLWRLVLAQRWMERLKTVAGSKMQGLLERVNTEIHFVTKCAFQPPPSCLRFVQTNISRLLQETSEQLVALKPWITRQNFSRCLELQCQPDSSTLPPPWSPRPLEATAPTAPQPP
- effect on growth, FLT3 ligand alone (EOL-1 cells): no effect on growth

B3: v62-1b21.1-AGL-0129-08 (conjugate)
VH: B1 VH
VL: B1 VL
- cytotoxicity (RS-4-11 cells): can induce cytotoxicity
